# Experimental data as given in patent US20140087995A1 (published 2014).
# Numbered stars: 1 amine (or outer) side, 2 acyl side, 3 side chain; on linkers, the order of the positions; unused ones are H or OH. Bridge positions count the residues as written; N and C are the ends. Side chains are listed from the residue outwards. Ends that are not written are not given here. * marks the point of attachment. C20 diacid = O=C(O)CCCCCCCCCCCCCCCCCCC(=O)*; γGlu = O=C(O)[C@H](CCC(=O)[*:2])N[*:1]; AEEA = NCCOCCOCC(=O)O
# T1: human amylin receptor (amylin 3(a) receptor: human calcitonin receptor with RAMP-3) (human, UniProt P30988 25-474; O60896 24-148)
# T1 construct: whole, on cells; Assay used cell membranes of the Amylin 3(a)/CRE-luc BHK cells, not intact cells; also called hAmylin-R; hAmylinR
# T1 sequence (looked up) 1: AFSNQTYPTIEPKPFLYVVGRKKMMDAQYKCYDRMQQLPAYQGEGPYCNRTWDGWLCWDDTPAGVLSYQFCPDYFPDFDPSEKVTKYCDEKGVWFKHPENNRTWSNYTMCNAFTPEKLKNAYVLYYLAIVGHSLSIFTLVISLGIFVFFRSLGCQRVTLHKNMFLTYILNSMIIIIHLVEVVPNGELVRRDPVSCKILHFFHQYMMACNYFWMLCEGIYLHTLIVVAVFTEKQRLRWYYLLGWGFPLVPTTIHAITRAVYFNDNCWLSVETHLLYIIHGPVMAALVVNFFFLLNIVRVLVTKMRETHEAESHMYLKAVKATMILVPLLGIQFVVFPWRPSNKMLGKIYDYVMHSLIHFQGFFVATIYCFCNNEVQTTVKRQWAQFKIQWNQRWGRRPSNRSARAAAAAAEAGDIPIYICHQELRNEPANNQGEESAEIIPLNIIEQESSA
# T1 sequence (looked up) 2: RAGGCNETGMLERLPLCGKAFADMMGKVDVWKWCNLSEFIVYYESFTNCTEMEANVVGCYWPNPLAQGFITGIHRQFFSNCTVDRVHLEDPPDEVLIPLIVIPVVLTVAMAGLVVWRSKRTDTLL
# T2: human calcitonin receptor (human, UniProt P30988 25-474)
# T2 construct: whole, on cells; Assay used cell membranes, not intact cells; also called hCTR; hCT
# T2 sequence (looked up): T1 sequence (looked up) 1
# B1: N^ε1-[2-[2-[2-[[(4S)-4-carboxy-4-(19-carboxynonadecanoylamino)butanoyl]amino]ethoxy]ethoxy]acetyl]-[Arg17,Pro21,Pro27,Arg34]-h-amylin (peptide)
# peptide: K([AEEA-γGlu-C20 diacid])CNTATCATQRLANFLRHSSPNFGAIPSSTNVGRNTY-NH2
# modifications: disulfide 2-7; N-terminus assumed
# SMILES: CC[C@H](C)[C@H](NC(=O)[C@H](C)NC(=O)CNC(=O)[C@H](Cc1ccccc1)NC(=O)[C@H](CC(N)=O)NC(=O)[C@@H]1CCCN1C(=O)[C@H](CO)NC(=O)[C@H](CO)NC(=O)[C@H](Cc1c[nH]cn1)NC(=O)[C@H](CCCNC(=N)N)NC(=O)[C@H](CC(C)C)NC(=O)[C@H](Cc1ccccc1)NC(=O)[C@H](CC(N)=O)NC(=O)[C@H](C)NC(=O)[C@H](CC(C)C)NC(=O)[C@H](CCCNC(=N)N)NC(=O)[C@H](CCC(N)=O)NC(=O)[C@@H](NC(=O)[C@H](C)NC(=O)[C@@H]1CSSC[C@H](NC(=O)[C@@H](N)CCCCNC(=O)COCCOCCNC(=O)CC[C@H](NC(=O)CCCCCCCCCCCCCCCCCCC(=O)O)C(=O)O)C(=O)N[C@@H](CC(N)=O)C(=O)N[C@@H]([C@@H](C)O)C(=O)N[C@@H](C)C(=O)N[C@@H]([C@@H](C)O)C(=O)N1)[C@@H](C)O)C(=O)N1CCC[C@H]1C(=O)N[C@@H](CO)C(=O)N[C@@H](CO)C(=O)N[C@H](C(=O)N[C@@H](CC(N)=O)C(=O)N[C@H](C(=O)NCC(=O)N[C@@H](CCCNC(=N)N)C(=O)N[C@@H](CC(N)=O)C(=O)N[C@H](C(=O)N[C@@H](Cc1ccc(O)cc1)C(N)=O)[C@@H](C)O)C(C)C)[C@@H](C)O
# notes: also called compound 78
# B2: N^ε1-[2-[2-[2-[[(4S)-4-carboxy-4-(19-carboxynonadecanoylamino)butanoyl]amino]ethoxy]ethoxy]acetyl]-[Thr14,Arg17,Pro21,Pro27,Pro31]-h-amylin (peptide)
# peptide: K([AEEA-γGlu-C20 diacid])CNTATCATQRLATFLRHSSPNFGAIPSSTPVGSNTY-NH2
# modifications: disulfide 2-7; N-terminus assumed
# SMILES: CC[C@H](C)[C@H](NC(=O)[C@H](C)NC(=O)CNC(=O)[C@H](Cc1ccccc1)NC(=O)[C@H](CC(N)=O)NC(=O)[C@@H]1CCCN1C(=O)[C@H](CO)NC(=O)[C@H](CO)NC(=O)[C@H](Cc1c[nH]cn1)NC(=O)[C@H](CCCNC(=N)N)NC(=O)[C@H](CC(C)C)NC(=O)[C@H](Cc1ccccc1)NC(=O)[C@@H](NC(=O)[C@H](C)NC(=O)[C@H](CC(C)C)NC(=O)[C@H](CCCNC(=N)N)NC(=O)[C@H](CCC(N)=O)NC(=O)[C@@H](NC(=O)[C@H](C)NC(=O)[C@@H]1CSSC[C@H](NC(=O)[C@@H](N)CCCCNC(=O)COCCOCCNC(=O)CC[C@H](NC(=O)CCCCCCCCCCCCCCCCCCC(=O)O)C(=O)O)C(=O)N[C@@H](CC(N)=O)C(=O)N[C@@H]([C@@H](C)O)C(=O)N[C@@H](C)C(=O)N[C@@H]([C@@H](C)O)C(=O)N1)[C@@H](C)O)[C@@H](C)O)C(=O)N1CCC[C@H]1C(=O)N[C@@H](CO)C(=O)N[C@@H](CO)C(=O)N[C@H](C(=O)N1CCC[C@H]1C(=O)N[C@H](C(=O)NCC(=O)N[C@@H](CO)C(=O)N[C@@H](CC(N)=O)C(=O)N[C@H](C(=O)N[C@@H](Cc1ccc(O)cc1)C(N)=O)[C@@H](C)O)C(C)C)[C@@H](C)O
# notes: also called compound 75
# B3: N^ε1-[2-[2-[2-[[(4S)-4-carboxy-4-(19-carboxynonadecanoylamino)butanoyl]amino]ethoxy]ethoxy]acetyl]-[His14,Arg17,Pro21,Pro27,His34]-h-amylin (peptide)
# peptide: K([AEEA-γGlu-C20 diacid])CNTATCATQRLAHFLRHSSPNFGAIPSSTNVGHNTY-NH2
# modifications: disulfide 2-7; N-terminus assumed
# SMILES: CC[C@H](C)[C@H](NC(=O)[C@H](C)NC(=O)CNC(=O)[C@H](Cc1ccccc1)NC(=O)[C@H](CC(N)=O)NC(=O)[C@@H]1CCCN1C(=O)[C@H](CO)NC(=O)[C@H](CO)NC(=O)[C@H](Cc1c[nH]cn1)NC(=O)[C@H](CCCNC(=N)N)NC(=O)[C@H](CC(C)C)NC(=O)[C@H](Cc1ccccc1)NC(=O)[C@H](Cc1c[nH]cn1)NC(=O)[C@H](C)NC(=O)[C@H](CC(C)C)NC(=O)[C@H](CCCNC(=N)N)NC(=O)[C@H](CCC(N)=O)NC(=O)[C@@H](NC(=O)[C@H](C)NC(=O)[C@@H]1CSSC[C@H](NC(=O)[C@@H](N)CCCCNC(=O)COCCOCCNC(=O)CC[C@H](NC(=O)CCCCCCCCCCCCCCCCCCC(=O)O)C(=O)O)C(=O)N[C@@H](CC(N)=O)C(=O)N[C@@H]([C@@H](C)O)C(=O)N[C@@H](C)C(=O)N[C@@H]([C@@H](C)O)C(=O)N1)[C@@H](C)O)C(=O)N1CCC[C@H]1C(=O)N[C@@H](CO)C(=O)N[C@@H](CO)C(=O)N[C@H](C(=O)N[C@@H](CC(N)=O)C(=O)N[C@H](C(=O)NCC(=O)N[C@@H](Cc1c[nH]cn1)C(=O)N[C@@H](CC(N)=O)C(=O)N[C@H](C(=O)N[C@@H](Cc1ccc(O)cc1)C(N)=O)[C@@H](C)O)C(C)C)[C@@H](C)O
# notes: also called compound 80
# B4: N^ε1-[2-[2-[2-[[(4S)-4-carboxy-4-(19-carboxynonadecanoylamino)butanoyl]amino]ethoxy]ethoxy]acetyl]-[His14,Arg17,Pro21,Pro27,Arg34]-h-amylin (peptide)
# peptide: K([AEEA-γGlu-C20 diacid])CNTATCATQRLAHFLRHSSPNFGAIPSSTNVGRNTY-NH2
# modifications: disulfide 2-7; N-terminus assumed
# SMILES: CC[C@H](C)[C@H](NC(=O)[C@H](C)NC(=O)CNC(=O)[C@H](Cc1ccccc1)NC(=O)[C@H](CC(N)=O)NC(=O)[C@@H]1CCCN1C(=O)[C@H](CO)NC(=O)[C@H](CO)NC(=O)[C@H](Cc1c[nH]cn1)NC(=O)[C@H](CCCNC(=N)N)NC(=O)[C@H](CC(C)C)NC(=O)[C@H](Cc1ccccc1)NC(=O)[C@H](Cc1c[nH]cn1)NC(=O)[C@H](C)NC(=O)[C@H](CC(C)C)NC(=O)[C@H](CCCNC(=N)N)NC(=O)[C@H](CCC(N)=O)NC(=O)[C@@H](NC(=O)[C@H](C)NC(=O)[C@@H]1CSSC[C@H](NC(=O)[C@@H](N)CCCCNC(=O)COCCOCCNC(=O)CC[C@H](NC(=O)CCCCCCCCCCCCCCCCCCC(=O)O)C(=O)O)C(=O)N[C@@H](CC(N)=O)C(=O)N[C@@H]([C@@H](C)O)C(=O)N[C@@H](C)C(=O)N[C@@H]([C@@H](C)O)C(=O)N1)[C@@H](C)O)C(=O)N1CCC[C@H]1C(=O)N[C@@H](CO)C(=O)N[C@@H](CO)C(=O)N[C@H](C(=O)N[C@@H](CC(N)=O)C(=O)N[C@H](C(=O)NCC(=O)N[C@@H](CCCNC(=N)N)C(=O)N[C@@H](CC(N)=O)C(=O)N[C@H](C(=O)N[C@@H](Cc1ccc(O)cc1)C(N)=O)[C@@H](C)O)C(C)C)[C@@H](C)O
# notes: also called compound 84
# B5: N^ε1-[2-[2-[2-[[(4S)-4-carboxy-4-(19-carboxynonadecanoylamino)butanoyl]amino]ethoxy]ethoxy]acetyl]-[Arg17,Pro21,Pro27,His34]-h-amylin (peptide)
# peptide: K([AEEA-γGlu-C20 diacid])CNTATCATQRLANFLRHSSPNFGAIPSSTNVGHNTY-NH2
# modifications: disulfide 2-7; N-terminus assumed
# SMILES: CC[C@H](C)[C@H](NC(=O)[C@H](C)NC(=O)CNC(=O)[C@H](Cc1ccccc1)NC(=O)[C@H](CC(N)=O)NC(=O)[C@@H]1CCCN1C(=O)[C@H](CO)NC(=O)[C@H](CO)NC(=O)[C@H](Cc1c[nH]cn1)NC(=O)[C@H](CCCNC(=N)N)NC(=O)[C@H](CC(C)C)NC(=O)[C@H](Cc1ccccc1)NC(=O)[C@H](CC(N)=O)NC(=O)[C@H](C)NC(=O)[C@H](CC(C)C)NC(=O)[C@H](CCCNC(=N)N)NC(=O)[C@H](CCC(N)=O)NC(=O)[C@@H](NC(=O)[C@H](C)NC(=O)[C@@H]1CSSC[C@H](NC(=O)[C@@H](N)CCCCNC(=O)COCCOCCNC(=O)CC[C@H](NC(=O)CCCCCCCCCCCCCCCCCCC(=O)O)C(=O)O)C(=O)N[C@@H](CC(N)=O)C(=O)N[C@@H]([C@@H](C)O)C(=O)N[C@@H](C)C(=O)N[C@@H]([C@@H](C)O)C(=O)N1)[C@@H](C)O)C(=O)N1CCC[C@H]1C(=O)N[C@@H](CO)C(=O)N[C@@H](CO)C(=O)N[C@H](C(=O)N[C@@H](CC(N)=O)C(=O)N[C@H](C(=O)NCC(=O)N[C@@H](Cc1c[nH]cn1)C(=O)N[C@@H](CC(N)=O)C(=O)N[C@H](C(=O)N[C@@H](Cc1ccc(O)cc1)C(N)=O)[C@@H](C)O)C(C)C)[C@@H](C)O
# notes: also called compound 76
# Target: T1, human amylin receptor (amylin 3(a) …)
# Assay: SPA competition with 125I-rat amylin on membranes of BHK cells with human calcitonin receptor and RAMP-3 (Assay V)
# Summary of the method: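 One-site competition analysis of SPA counts yielded IC₅₀ as a measure of affinity. Membranes were at 35 ng/μL final; incubation was 120 min at 25° C, pH 7.4.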
row,IC50 [nM],Binder
1,0.602,B1
2,0.666,B2
3,0.29,B3
4,0.743,B4
5,0.215,B5

# Target: T2, human calcitonin receptor
# Assay: ratio IC50 hCTR / IC50 hAmylin-R (reference: human amylin receptor), SPA competition assays
# Summary of the method: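 Competition binding by SPA uses membrane preparations (35 ng/μL final) in pH 7.4 Hepes buffer with 1 mM CaCl2 and 5 mM MgCl₂. Incubation lasts 120 min at 25° C, and IC₅₀ comes from one-site fitting.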
row,Ratio hCT/hAmylin binding,Binder
1,60.7,B1
2,91.4,B2
3,68.1,B3
4,120,B4
5,80,B5

# Target: T2, human calcitonin receptor
# Assay: SPA competition with 125I-calcitonin on membranes of BHK cells with human calcitonin receptor (Assay VII)
# Summary of the method: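 BHK hCTR membranes 35 ng/μL + SPA beads 0.05 mg/well; buffer 50 mM Hepes pH 7.4, 1 mM CaCl2, 5 mM MgCl₂, 0.1% OA, 0.02% Tween20. 120 min, 25° C., shaking. Scintillation count; IC50 by one-site binding competition.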
row,IC50 [nM],Binder
1,36.5,B1
2,60.9,B2
3,19.8,B3
4,88.9,B4
5,17.2,B5
